# ± gives the uncertainty stated by the source.
# Assay: self-splicing fitness, log relative to wild type (ln ratio); higher = more splicing; Tetrahymena group I intron in knt gene, E. coli kanamycin selection, DiMSum; sequences stand for … in CUCUCU…GGAGGGAAAAGUUAUCAGGCAUGCACCUGGUAGCUAGUCUUUAAACCAAUAGAUUGCAUCGGUUUAAAAGGCAAGACCGUCAAAUUGCGGGAAAGGGGUCAACAGCCGUUCAGUACCAAGUCUCAGGGGAAACUUUGAGAUGGCCUUGCAAAGGGUAUGGUAAUAAGCUGACGGACAUGGUCCUAACCACGCAGCCAAGUCCUAAGUCAACAGAUCUUCUGUUGAUAUGGAUGCAGUUCACAGACUAAAUGUCGGUCGGGGAAGAUGUAUUCUUCUCAUAAGAUAUAGUCGGACCUCUCCUUAAUGGGAGCUAGCGGAUGAAGUGAUGCAACACUGGAGCCGCUGGGAACUAAUUUGUAUGCGAAAGUAUAUUGAUUAGUUUUGGAGUACUCGUGGUCG
# Method in brief: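 A randomised library covering all eight P1ex-region intron nucleotides was built with the intron in the knt kanamycin-resistance gene on pET-22b(+) and held in E. coli BL21(DE3). Cells were grown overnight at 37°C or 30°C on LB agar, with or without 25 μg/mL kanamycin, plus 100 μg/mL carbenicillin, 50 μM IPTG and 0.2% rhamnose, and pooled colonies were amplicon-sequenced on an Illumina HiSeq 2500. DiMSum fitness is the error-weighted combination of wild-type-normalised replicate fold changes, kanamycin versus none.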
sequence,measurement,setting,value
UACUAGCAAUAUUACGUAAC,self-splicing fitness (ln),30 °C,-2.8 ± 0.17
same,self-splicing fitness (ln),37 °C,-3.33 ± 0.42
GUGCAGCAAUAUUACGCUUU,self-splicing fitness (ln),30 °C,-1.26 ± 0.066
same,self-splicing fitness (ln),37 °C,-0.18 ± 0.074
GGUCAGCAAUAUUACGAGAG,self-splicing fitness (ln),30 °C,-3.37 ± 0.42
same,self-splicing fitness (ln),37 °C,-1.16 ± 0.25
AAGCAGCAAUAUUACGUUCC,self-splicing fitness (ln),30 °C,-1.73 ± 0.11
same,self-splicing fitness (ln),37 °C,-1.54 ± 0.17
CCGCAGCAAUAUUACGAUUG,self-splicing fitness (ln),30 °C,-0.997 ± 0.085
same,self-splicing fitness (ln),37 °C,-0.816 ± 0.09
UAGCAGCAAUAUUACGAAUG,self-splicing fitness (ln),30 °C,-0.736 ± 0.072
same,self-splicing fitness (ln),37 °C,-0.47 ± 0.13
GUCGAGCAAUAUUACGACGU,self-splicing fitness (ln),30 °C,-0.827 ± 0.19
same,self-splicing fitness (ln),37 °C,-0.341 ± 0.16
AGUUAGCAAUAUUACGGCUA,self-splicing fitness (ln),30 °C,-0.379 ± 0.11
same,self-splicing fitness (ln),37 °C,-0.127 ± 0.11
GGGUAGCAAUAUUACGUGAA,self-splicing fitness (ln),30 °C,-1.36 ± 0.13
same,self-splicing fitness (ln),37 °C,-0.147 ± 0.16
GCUGAGCAAUAUUACGCGGG,self-splicing fitness (ln),30 °C,-2.93 ± 0.14
same,self-splicing fitness (ln),37 °C,-1.19 ± 0.14
UGUAAGCAAUAUUACGUGCC,self-splicing fitness (ln),30 °C,-1.46 ± 0.2
same,self-splicing fitness (ln),37 °C,-0.0201 ± 0.22
CCCAAGCAAUAUUACGAAGC,self-splicing fitness (ln),30 °C,-3.21 ± 0.2
same,self-splicing fitness (ln),37 °C,-2.7 ± 0.24
ACUGAGCAAUAUUACGAACA,self-splicing fitness (ln),30 °C,-3.84 ± 0.47
same,self-splicing fitness (ln),37 °C,-2.59 ± 0.48
ACAGAGCAAUAUUACGUCCU,self-splicing fitness (ln),30 °C,-1.35 ± 0.21
same,self-splicing fitness (ln),37 °C,-0.399 ± 0.2
UUACAGCAAUAUUACGUGCU,self-splicing fitness (ln),30 °C,-3.78 ± 0.2
same,self-splicing fitness (ln),37 °C,-2.26 ± 0.23
AGUCAGCAAUAUUACGAAGU,self-splicing fitness (ln),30 °C,-1.48 ± 0.084
same,self-splicing fitness (ln),37 °C,-0.0211 ± 0.096
CGGGAGCAAUAUUACGACAU,self-splicing fitness (ln),30 °C,-4.013 ± 0.038
same,self-splicing fitness (ln),37 °C,-2.67 ± 0.046
GAGCAGCAAUAUUACGGUCU,self-splicing fitness (ln),30 °C,-0.727 ± 0.12
same,self-splicing fitness (ln),37 °C,-0.857 ± 0.14
ACCCAGCAAUAUUACGUCAG,self-splicing fitness (ln),30 °C,-3.14 ± 0.11
same,self-splicing fitness (ln),37 °C,-1.22 ± 0.092
AUUAAGCAAUAUUACGGUUA,self-splicing fitness (ln),30 °C,-1.18 ± 0.095
same,self-splicing fitness (ln),37 °C,-1.19 ± 0.085
UAACAGCAAUAUUACGUUUC,self-splicing fitness (ln),30 °C,-4.16 ± 0.26
same,self-splicing fitness (ln),37 °C,-2.44 ± 0.23
GGAAAGCAAUAUUACGAUCG,self-splicing fitness (ln),30 °C,-0.227 ± 0.084
same,self-splicing fitness (ln),37 °C,-0.145 ± 0.12
UCGUAGCAAUAUUACGCCCG,self-splicing fitness (ln),30 °C,-0.251 ± 0.19
same,self-splicing fitness (ln),37 °C,-0.113 ± 0.17
UUAUAGCAAUAUUACGAUGC,self-splicing fitness (ln),30 °C,-2.99 ± 0.34
same,self-splicing fitness (ln),37 °C,-1.93 ± 0.32
UGGAAGCAAUAUUACGCGUU,self-splicing fitness (ln),30 °C,-4.13 ± 0.18
same,self-splicing fitness (ln),37 °C,-3.03 ± 0.26
AACUAGCAAUAUUACGCAAU,self-splicing fitness (ln),30 °C,-2.35 ± 0.13
same,self-splicing fitness (ln),37 °C,-2.15 ± 0.16
GCCAAGCAAUAUUACGCCGA,self-splicing fitness (ln),30 °C,-1.64 ± 0.15
same,self-splicing fitness (ln),37 °C,-0.102 ± 0.11
ACUCAGCAAUAUUACGGCUC,self-splicing fitness (ln),30 °C,-0.59 ± 0.09
same,self-splicing fitness (ln),37 °C,-0.761 ± 0.12
AAUUAGCAAUAUUACGCCCA,self-splicing fitness (ln),30 °C,0.555 ± 0.24
same,self-splicing fitness (ln),37 °C,-0.278 ± 0.36
CGAGAGCAAUAUUACGAUCC,self-splicing fitness (ln),30 °C,-3.95 ± 0.46
same,self-splicing fitness (ln),37 °C,-2.36 ± 0.28
CCAAAGCAAUAUUACGGGCU,self-splicing fitness (ln),30 °C,-2.45 ± 0.13
same,self-splicing fitness (ln),37 °C,-3.3 ± 0.23
UACGAGCAAUAUUACGCCGG,self-splicing fitness (ln),30 °C,-2.84 ± 0.29
same,self-splicing fitness (ln),37 °C,0.206 ± 0.22
AUCAAGCAAUAUUACGUCGU,self-splicing fitness (ln),30 °C,-1.5 ± 0.052
same,self-splicing fitness (ln),37 °C,-0.574 ± 0.071
UUCUAGCAAUAUUACGUUUC,self-splicing fitness (ln),30 °C,-2.75 ± 0.39
same,self-splicing fitness (ln),37 °C,-2.47 ± 0.3
ACGUAGCAAUAUUACGCCAA,self-splicing fitness (ln),30 °C,-2.3 ± 0.38
same,self-splicing fitness (ln),37 °C,-1.5 ± 0.37
CUGCAGCAAUAUUACGAGCU,self-splicing fitness (ln),30 °C,-2.93 ± 0.18
same,self-splicing fitness (ln),37 °C,-2.25 ± 0.21
UUGAAGCAAUAUUACGUGAU,self-splicing fitness (ln),30 °C,-2.29 ± 0.11
same,self-splicing fitness (ln),37 °C,-1.3 ± 0.16
CAUGAGCAAUAUUACGCUCC,self-splicing fitness (ln),37 °C,-1.38 ± 0.48
AUACAGCAAUAUUACGGUGU,self-splicing fitness (ln),30 °C,-3.8 ± 0.2
same,self-splicing fitness (ln),37 °C,-2.18 ± 0.13
CCACAGCAAUAUUACGGUUA,self-splicing fitness (ln),30 °C,-3.14 ± 0.15
same,self-splicing fitness (ln),37 °C,-2.7 ± 0.16
UAGUAGCAAUAUUACGCGAU,self-splicing fitness (ln),30 °C,-2.23 ± 0.42
same,self-splicing fitness (ln),37 °C,-0.904 ± 0.3
GACUAGCAAUAUUACGCUAC,self-splicing fitness (ln),30 °C,-1.81 ± 0.16
same,self-splicing fitness (ln),37 °C,-1.33 ± 0.2

# — the supplement of paper PMC7877785
